This note sets out measurements from patent US20110053840A1 (MERCK SERONO S A, published 2011).

Where only a bound is given, the exact number is not on record here.

This assay has as its target T1, HLA-DR2b molecules purified from L cells co-transfected with HLA-DRA and HLA-DRB1*1501 (human).
T1 construct: also called purified DR2b molecules
Nature of the assay: competitive ELISA (DELFIA) on purified HLA-DR2b, displacement of biotinylated CLIP 97-120. From the text: DR2b molecules were purified from L cells that had been co-transfected with HLA-DRA and HLA-DRB1*1501, by affinity chromatography using the HLA-DR-specific L243 antibody, as described in Weissert et al. (2001), MHC class II-regulated central nervous system autoaggression and T cell responses in peripheral lymphoid tissues are dissociated in myelin oligodendrocyte glycoprotein-induced experimental autoimmune encephalomyelitits, J. Immunol. […] The above publication is incorporated into the present application by reference. The binding assays were performed with a competitive ELISA based on a dissociation-enhanced lanthanide fluoroimmunoassay (Wallac, Turku, Finland). For the competitive ELISA, a 50 nM solution of DR2b molecules was incubated for 48 hours at 37° C. with 50 nM biotinylated CLIP 97-120 in the presence of 250 nM acetylated nonapeptide amide sublibrary or with various concentrations of competitor peptides ranging from 1 nM to 100 μM.
The affinity of each of these peptides for the HLA-DR2b molecule was measured using the ELISA.

For the molecule Ac-FILIYSNLF-NH2 (acetylated nonapeptide amide) [HuPb29], the half-inhibitory concentration (IC50) was found to be 2 nM.

As to Ac-KGESGFRDR-NH2 (acetylated nonapeptide amide) [HuPb17], the IC50 is > 100000 nM.

In the case of Ac-WPLPLLEER-NH2 (acetylated nonapeptide amide) [HuPb10], the IC50 turned out to be 33900 nM.

In turn, Ac-MIDWYSSWP-NH2 (acetylated nonapeptide amide) [HuPb34] gave an IC50 of 1 nM.

Turning to Ac-GPPERLEFR-NH2 (acetylated nonapeptide amide) [HuPb19], the IC50 is > 100000 nM.

For Ac-LILYYYYYL-NH2 (acetylated nonapeptide amide) [HuPb23], the IC50 amounted to 154 nM.

In the case of Ac-GSLPRHLFR-NH2 (acetylated nonapeptide amide) [HuPb18], the concentration for half-maximal inhibition (IC50) was found to be 43800 nM.

For Ac-PYEAQELHE-NH2 (acetylated nonapeptide amide) [HuPb14], the half-maximal inhibitory concentration (IC50) is > 100000 nM.

As for Ac-WGLPEHLER-NH2 (acetylated nonapeptide amide) [HuPb11], the half-maximal inhibitory concentration (IC50) is > 100000 nM.

B1: HuPb28 (peptide)
peptide: Ac-MLIYYSSYL-NH2
notes: acetylated nonapeptide amide; also called HuPb28 peptide
On to B1, for which the concentration for half-maximal inhibition (IC50) is < 1 nM.

With Ac-MIYWYSSWL-NH2 (acetylated nonapeptide amide) [HuPb20], the IC50 turned out to be 1 nM.

The molecule Ac-LIYWYSSWL-NH2 (acetylated nonapeptide amide) [HuPb22] had a 50% inhibitory concentration (IC50) of 2 nM.

In turn, Ac-LILWYSSWL-NH2 (acetylated nonapeptide amide) [HuPb24] gave a concentration for half-maximal inhibition (IC50) of 2 nM.

Ac-MIYWYNSWL-NH2 (acetylated nonapeptide amide) [HuPb31]: the IC50 is < 1 nM.

Turning to Ac-LILWYSSWP-NH2 (acetylated nonapeptide amide) [HuPb26], the IC50 turned out to be 1 nM.

For the molecule Ac-MIYWYSSWD-NH2 (acetylated nonapeptide amide) [HuPb33], the IC50 was 1 nM.

For the molecule Ac-MIYWYSSWI-NH2 (acetylated nonapeptide amide) [HuPb21], the IC50 turned out to be 1 nM.

For Ac-MIYWYSNWL-NH2 (acetylated nonapeptide amide) [HuPb30], the IC50 was < 1 nM.

Consider Ac-LLYWYSSWP-NH2 (acetylated nonapeptide amide) [HuPb27], for which the 50% inhibitory concentration (IC50) is < 1 nM.

Take Ac-DIYWYSSWP-NH2 (acetylated nonapeptide amide) [HuPb32]: the IC50 is < 1 nM.

Ac-GPLPEHELL-NH2 (acetylated nonapeptide amide) [HuPb15] showed an IC50 of 46700 nM.
